Experiment: yeast display, Sf9 membrane polyspecificity reagent, FACS + sequencing; frameworks hold sequencing errors
Procedure, shortened: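 A nanobody's polyreactivity label depends on the gate it was sorted from. Yeast display cells were stained with 10% biotinylated, detergent-solubilized Sf9 membrane reagent for 1 hour at 4 °C, enriched on streptavidin microbeads and sorted by FACS. The low and high (top ~1%) gates were set on anti-HA fluorescence for expression and streptavidin fluorescence for reagent binding.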

| Sequence | polyreactivity (PSR sort gate) |
| --- | --- |
| QVQLVESGGGLVQAGGSLRLSCADSGNIFRSYKGWYRQAPGKERELVASISRRGGSTYYADSVKGRFTISRDNAKNTVYLQINSLKPEDSAVYYCARRWSWVNGVFGLYWGQGTQVTLSS | high polyreactivity |
| QVQLGESGGGLVQAGGSVRLSCAASGGTFGWYAMGWYRPAPGKERELVAAITSSGGTTFDADSVKGRFTISRDNAKNTVYLQMNSLKPEDTAVYYCAKRGQRPTRYKLGKYDYWGQGTQVTVSS | high polyreactivity |
| QVQLVESGGGLVQAGGSLRLSCAASGFIFGYYAMGWYRQAPGKEREFVAAITKRGGRTYYADSVKGRFTISRDNAKNTVYLQMNSLKPEDTAVYYCNKAIRQDRWVQEEDYWGQGTQVTVSS | high polyreactivity |
| QVQLVESGGGLVQAGGSLRLSCAASGRTFRGNAMGWYRQAPGKERELVAAISGSGGRTYYADSVKGRFTISRDNAKNTVYLKMNSLKPEDTAVFYCAAKRGKTYQRFDYWGQGTQVTVSS | high polyreactivity |
| QVQLVESGGGLVQAGGSLRLSCAASGSIFYPNAMGWYRQAPGKERELVAAINGGGSTYYADSVKGRFTISRDNAKNTVYLQMNSLKPEDTAVYYCAADSNDVYYDTPSYDYWGQGTQVTVSS | low polyreactivity |
| QVQLVESGGRLVQAGGTLRLSCAASGSICGFNAMGWYRQAPGKERELVAAINNGGSKNYADSVKGRFTISRDNAKITVYLQMKILKQEDTEVYYCAARLNYIRRGYWGQGTQVTVSS | high polyreactivity |
| QVQLVESGGGLVQAGGSLRFSCAASGYIFTPYAMGWYRQAPGKERELVAAISWSGGSTYYADSVKGRFTISRDNEKNTVYLQMNSLKPEDTAVYYCAAESAWGSRVFYSKFYYWGQGTQVTVSS | low polyreactivity |
| QVQLVESGGGLVQAGGSIRLSCAASVFTFRANGMGWYRKAPGKERELVATITSGGTTNYADSVKGRFTISRDNAKNTVYLQMNSLIPEDTAVYYCNAGSVSDRQMDYWGQGTQGTVSS | low polyreactivity |
| QDQLVESGGGLVQAGGSLRLSCADYGINFYSYAMGWYRQAPGKEREFVAAISTGSSTNYADSVKGRFTISRDNAKNNVYLQMISLKPEDTAVYYCAKSTAVKPYAYRESGFIYDYWGQGTQLTVSS | low polyreactivity |
| QVQLQESGGGLVKAGGSLRLSCAASGSIFYWPWMGWYRQAPGREREFVATITTGSNTYYADSMKGHLTISRDNARNTVYLQMNSLKPEDTAVYYCAVVGDGELEHRYWGQGTQVTVSS | high polyreactivity |
| QVQLVDSGGGLVQAGGSLRLSCDASGSIFFWYTMGWYRQAPGKESELVATITGSGSSTTYADSVKGRFTISRDNAKNTVYLQMISLKPEDTAVYYCAAADIIDHSFPYDYWGLGTQVTVSS | low polyreactivity |
| QVQLVESGGGLVQAGGSLRLSCAASGSIFDRNAMGWYRQAPGKERELVAAISRSSGNTYYADSVKGRFTISRDNAKNTVYLQMNSLKPEDTAVYYCNKVDYWGQGTQVTVSS | high polyreactivity |
| QGQLEESGGGLVQAGCSLRRSCAASGNIFLIYAMGWSRQAPGKEGELVAAISFSDDTTDYADSVKGRFTSSRDNAKNTAYIQMNSLKPEDTAVYYCAAELYYDVANTQYDYWGQGTQVTVSS | high polyreactivity |
| QVQLVESGGGLVQAGGSLRLSCAASGSTFRLNAMGWYRQAPGKERELVAAITSGGSTTYADSVKGRFTISRDNAKNTVYLQMNSLKPEDTAVYYCAAANWGTPPYDYWGQGTQVTVSS | low polyreactivity |
| QVQLVESGGGLVQAGGSLRLSCAASGSTFYRNARAWYRQAPGKERELVAGISYGGGSTYYADSVKGRFTISRDNAKNTVYLQMNSLKPEDTAVYYCNAVWVKRHYYYWGQGSQVTVSS | low polyreactivity |
| QVQLVESGGGLVQAGGSLRLSCAASGFIFRYYAMGWYRHAPGKERELVAAISSGGRTSYADSVKGRFTISRDNAKNTVYLQMNSLKPEDTAVYYCAADSWRGLFYYGNDYWGQGTQVTVSS | high polyreactivity |

| Sequence | polyreactivity (PSR sort gate) |
| --- | --- |
| QVQLVESGGGLVQAGGSLRLSCAASGFTLEFYAMGWYRQAPGKERELVAAISKSGGSTYYADSVKGRFTISRDNAKNTVYLQMNSLKPEDTAVYYCAKVNSYGPVPDRYDYWGQGTQVTVSS | high polyreactivity |
| QVQLVESGGGLVQAGGSLRLSCAASGSTFGPYALGWYRQAPGKERELVAAIDKSGGSTYYADSVKGRFTISRDNAKNTVYLQMNSLKPEDTAVYYCAADMLRYFGYYDYDSWGQGTQVTVSS | low polyreactivity |
| QVQLVESGGGLVQAGGSLRLSSAASGFTFGSYAMGWYRQAPGKERELVAAIRASGGRTYYADSVKGRFTISRDNAKNTVYLQMNSLKPEDTAVYYCAAQLPMGKRYYYWGQGTQVTVSS | high polyreactivity |
| QVQLVESGGGLVQAGGSLRLSCAASGRIFTQNAMGWYRQAPGKERELVAAINYSGGRTYYADSVKGRFTISRDNAKNTVYLQMNSLKPEDTAVYYCAAEWYTRFYISYGYWGQGTQVTVSS | high polyreactivity |
| QVQLVESGGGLVQAGGSLRLSCAASGNTFLRNTMGWYRQAPGKERELVAAISWGGGTTYYADSVKGRFTISRDNAKNTVYLQINSLKPEDSAVYYCNARYYSRRGNSWGQGTQVTVSS | high polyreactivity |
| QVQLVESGGGLVQAGGSLRLSCAASGSIFSQYVMGWYRQAPGKERELVAAISWSGGHTYYADSVKGRFTISRDNAKNTVYLQMNSLKPEDTAVYYCATVPRKTPGNAELDYWGQGTQVTVSS | high polyreactivity |
| KVQLVESGGGLVQAGGSIRLSFAASGLIFLQYCMGWYRQAPGKERELVAAITTRGGRTYYADSVKGRFTISRDNPKNTVYLQMNSLKPEDTAVYYCAADSEQDNLRYYRWVWYYYWGQGPQVTVSS | low polyreactivity |
| QVQLVESGGGLVQAGGSLRLSCAASGRTFYSYAMGWYRQAPGKERELVAAISSSSGRTYYADSVKGRFTISRDNAKNTVYLQMNSLKPEDTAVYYCNRAGGYRTTFYSWGQGTQVTVSS | high polyreactivity |
| QLQLQESVGGLVQAGGSLRLSCAAIGNIFPTDRMGWYSQSPGKELEFVATISHGGSTNNADSVKGRFTISRDNGKNTVYLKMNSLKPEVTAVYYCAVWSLGRWRNYYWGQGSQVTVSS | low polyreactivity |
| QVQLVESGGGLVQPGGSLRLSCAASGSTFGGYAKGWYRQAPGQERELVAAITWDTGTTYYADSVKGRFTISRDNAKNTVYLQMNSLKPEDTAVYYCAAVGSTTTGVRRRGYWGQGTQVNVSS | high polyreactivity |
| QVQREESGGGLVQAGGSLRLSCAASGITFKWYAMGWYRQAPGKEREFVAIISTRGGSTYYADSVKGRFTISRDNAKNTVYLQMNSLKPVDTAVYYCNAVRSRVVHRRGDFDYWGQGTQVTVSS | high polyreactivity |
| QVQLVESGGGLVQAGGSLRLSCAASGSILSINGMGWYRQAPGKERELVATIDGSDGTTFYADSVKGRFTISRDNAKNTVYLQMNSLKPEDTAVYYCAAENFWQTKEYDYWGQGTQVTVSS | low polyreactivity |
| QVQLVETGGGLVQAGGSLRLSCAASGYTFRYYAMGWYRQAPGKERELVAAISRRGGSTSYADSVKGRFTISRDNAKNTVYLQMNSLKPEDTAVYYCAVYLGGVSPTYGYWGQGTQVTVSS | high polyreactivity |
| QVQLVESGGGLVQAGGSLRLSCAASGFTFKHYTMGWYRQAPGKERELVAAISYSGGSTYYADSVKGRFTISRDNAKNTVYLQMNSLKPEDTAVYYCAADAVKASVSYIVPYAAYDYWGQGTQVTVSS | low polyreactivity |
| QVQLVESGGGLVQAGGSLRLSCAASGRTFYYYAMGWYRQAPGKERELVARIRSTGRTSYADSVKGRFTISRDNAKNTVYLQMNRLKPEDTAVYYCAAKYSSTAWSRRKFDYWGQGTQVTVSS | high polyreactivity |
| QFQLVESGGGLVQAVVSLRLSCAASGSIFDIYDMGWYRQAPGKETELDAAIRSGDRTHYADSVKGRFTISRDNAKITVYLQMNSLKPEDTAVYYCAADRYIYLNREHDYWGQGTQVTVSS | low polyreactivity |

— the nanobody polyreactivity screen of Harvey et al. (2022)
